According to patent publication US20230227565A1 (OSE IMMUNOTHERAPEUTICS, published 2023):

Legend:
[1] = target: T1, recombinant hCD16a/FcγRIIIa (human, UniProt P08637 17-208); test: ELISA, recombinant FcγR immobilized at 2 µg/ml, detection with peroxidase-labeled anti-human IgG
T1 construct: Bought recombinant protein, immobilized on plastic at 2 µg/ml

[2] = target: T2, recombinant hCD32a/FcγRIIa (human, UniProt P12318 36-218); test: as above
T2 construct: Bought recombinant protein, immobilized on plastic at 2 µg/ml
T2 sequence (looked up): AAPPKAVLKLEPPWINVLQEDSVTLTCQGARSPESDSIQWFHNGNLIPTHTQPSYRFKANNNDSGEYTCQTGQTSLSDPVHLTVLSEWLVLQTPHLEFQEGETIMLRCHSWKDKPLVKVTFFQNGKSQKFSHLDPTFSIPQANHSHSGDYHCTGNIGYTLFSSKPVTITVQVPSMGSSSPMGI

recombinant hCD64/FcγRI = target: T3, recombinant hCD64/FcγRI (human, UniProt P12314 16-288); test: as above
T3 construct: Bought recombinant protein, immobilized on plastic at 2 µg/ml

[3] = target: T4, human CD127 (Interleukin-7 receptor subunit alpha) (human, UniProt P16871 21-459); test: flow cytometry on ALL cell lines, 10 ug/mL antibody, fold change of PE geometric mean against isotype control
T4 construct: Endogenous CD127 on human ALL cell lines (HPB-ALL, DND41, 697, NALM6, REH) and on patient cells; no signal peptide limits are stated; also called IL7R-a; IL-7R
T4 sequence: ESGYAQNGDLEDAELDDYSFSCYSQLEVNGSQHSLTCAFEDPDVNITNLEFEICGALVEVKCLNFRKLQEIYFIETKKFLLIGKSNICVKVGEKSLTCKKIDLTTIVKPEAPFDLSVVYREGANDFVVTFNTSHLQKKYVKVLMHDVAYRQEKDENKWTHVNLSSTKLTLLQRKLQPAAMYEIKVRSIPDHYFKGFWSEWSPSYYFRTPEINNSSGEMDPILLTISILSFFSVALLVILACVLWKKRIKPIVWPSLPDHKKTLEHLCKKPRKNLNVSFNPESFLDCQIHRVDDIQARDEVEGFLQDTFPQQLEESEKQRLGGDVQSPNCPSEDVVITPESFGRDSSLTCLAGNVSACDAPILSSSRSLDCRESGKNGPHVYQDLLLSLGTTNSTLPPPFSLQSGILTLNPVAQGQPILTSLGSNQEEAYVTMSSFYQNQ

T3 sequence (P12314 16-288 limits assumed): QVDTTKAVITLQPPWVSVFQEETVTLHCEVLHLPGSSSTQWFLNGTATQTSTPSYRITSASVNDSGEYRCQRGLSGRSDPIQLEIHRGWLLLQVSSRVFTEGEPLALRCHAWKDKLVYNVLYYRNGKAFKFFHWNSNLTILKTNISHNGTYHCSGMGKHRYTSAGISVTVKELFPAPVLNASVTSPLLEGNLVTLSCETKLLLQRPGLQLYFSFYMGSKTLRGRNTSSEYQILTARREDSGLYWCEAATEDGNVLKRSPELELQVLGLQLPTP
T1 sequence (P08637 17-208 limits assumed): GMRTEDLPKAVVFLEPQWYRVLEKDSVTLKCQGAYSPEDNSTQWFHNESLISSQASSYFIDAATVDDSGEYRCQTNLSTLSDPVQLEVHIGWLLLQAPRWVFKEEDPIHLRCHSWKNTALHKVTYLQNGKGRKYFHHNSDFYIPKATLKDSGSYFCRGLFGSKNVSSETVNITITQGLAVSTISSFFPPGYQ

binding result [1]: no binding | binding result [2]: no binding | binding result (recombinant hCD64/FcγRI): no binding | binding result [3]: binds
B1: N13B2-hVL6 (antibody, human IgG4 S228P, kappa)
heavy: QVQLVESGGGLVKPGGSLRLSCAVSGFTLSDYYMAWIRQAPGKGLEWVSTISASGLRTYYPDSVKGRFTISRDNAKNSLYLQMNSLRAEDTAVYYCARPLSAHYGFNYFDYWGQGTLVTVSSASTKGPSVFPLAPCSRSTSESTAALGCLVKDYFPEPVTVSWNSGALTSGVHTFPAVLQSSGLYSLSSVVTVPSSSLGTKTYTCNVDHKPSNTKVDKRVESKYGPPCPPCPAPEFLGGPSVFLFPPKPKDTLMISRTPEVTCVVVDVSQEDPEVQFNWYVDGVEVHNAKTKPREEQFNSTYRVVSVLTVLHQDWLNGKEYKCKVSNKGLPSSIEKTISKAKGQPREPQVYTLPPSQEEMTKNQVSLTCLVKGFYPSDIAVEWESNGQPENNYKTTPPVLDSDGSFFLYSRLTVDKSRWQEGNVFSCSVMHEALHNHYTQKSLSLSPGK
light: DIQMTQSPSSLSASVGDRVTITCRTSEDIYQGLAWYQQKPGKAPKLLLYSANTLHIGVPSRFSGSGSGTDYTLTISSLQPEDFATYYCQQYYDYPLAFGGGTKVEIKRTVAAPSVFIFPPSDEQLKSGTASVVCLLNNFYPREAKVQWKVDNALQSGNSQESVTEQDSKDSTYSLSSTLTLSKADYEKHKVYACEVTHQGLSSPVTKSFNRGEC
notes: Humanized antagonist anti-CD127 IgG4 antibody; also called NB13B2-hVL6; N13B6-hVL6; copies: 2 + 2
